# System: Escherichia coli TOP10
# Assay: shrunken log2 fold change of peptide-encoding DNA abundance (4.5 h post-induction vs induction); higher = less antimicrobial activity (less host growth inhibition)
# Settings: time post-induction: 4.5 h; library: site-saturation at positions 5, 18, 19, 20
# 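Further: peptides expressed intracellularly from a pBAD plasmid library in pooled LB shake-flask culture, induced with 0.3% L-arabinose, DNA abundance read by NGS, three biological replicates, DESeq2 with apeglm shrinkage.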
row,Sequence,shrunken log2 fold change
1,RRIRWRPPRLPRPRPRPYHKPRP,-0.118
2,RRIRERPPRLPRPRPRPCPRPRP,-0.021
3,RRIRERPPRLPRPRPRPCRLPRP,-0.197
4,RRIRGRPPRLPRPRPRPAARPRP,1.16
5,RRIRVRPPRLPRPRPRPKCAPRP,0.0145
6,RRIRLRPPRLPRPRPRPALEPRP,0.155
7,RRIRHRPPRLPRPRPRPFCGPRP,0.336
8,RRIRDRPPRLPRPRPRPWLNPRP,-0.277
9,RRIRSRPPRLPRPRPRPPEVPRP,0.287
10,RRIRERPPRLPRPRPRPRCLPRP,0.0247
11,RRIRPRPPRLPRPRPRPHPFPRP,-0.115
12,RRIRERPPRLPRPRPRPSMFPRP,-0.723
13,RRIRKRPPRLPRPRPRPTFEPRP,0.312
14,RRIRTRPPRLPRPRPRPCFFPRP,-0.202
15,RRIRTRPPRLPRPRPRPKVMPRP,-0.243
16,RRIRIRPPRLPRPRPRPVCFPRP,-0.256
17,RRIRSRPPRLPRPRPRPCHTPRP,0.00383
18,RRIRRRPPRLPRPRPRPDVTPRP,-0.0312
19,RRIRLRPPRLPRPRPRPKDIPRP,-0.23
20,RRIRYRPPRLPRPRPRPWIAPRP,-0.791
21,RRIRIRPPRLPRPRPRPVWPPRP,0.0939
22,RRIRSRPPRLPRPRPRPVSSPRP,0.0316
23,RRIRDRPPRLPRPRPRPPCEPRP,0.121
24,RRIRWRPPRLPRPRPRPKKDPRP,0.223
25,RRIRYRPPRLPRPRPRPHRMPRP,-1.51

row,Sequence,shrunken log2 fold change
1,RRIRVRPPRLPRPRPRPFGVPRP,-0.179
2,RRIRDRPPRLPRPRPRPMVFPRP,-0.0423
3,RRIRLRPPRLPRPRPRPSYCPRP,-0.413
4,RRIRHRPPRLPRPRPRPFAAPRP,-0.0135
5,RRIRARPPRLPRPRPRPKPCPRP,0.162
6,RRIRSRPPRLPRPRPRPMNTPRP,-0.647
7,RRIRKRPPRLPRPRPRPHKYPRP,-0.448
8,RRIRPRPPRLPRPRPRPKADPRP,0.0968
9,RRIRPRPPRLPRPRPRPLSFPRP,-0.132
10,RRIRVRPPRLPRPRPRPYTNPRP,-0.656
11,RRIRERPPRLPRPRPRPQADPRP,-0.171
12,RRIRKRPPRLPRPRPRPETPPRP,1.89
13,RRIRVRPPRLPRPRPRPKEHPRP,0.0755
14,RRIRCRPPRLPRPRPRPPQTPRP,0.665
15,RRIRFRPPRLPRPRPRPALCPRP,-0.088
16,RRIRFRPPRLPRPRPRPSYPPRP,-0.161
17,RRIRQRPPRLPRPRPRPRMEPRP,-0.194
18,RRIRLRPPRLPRPRPRPRERPRP,0.612
19,RRIRIRPPRLPRPRPRPSQWPRP,-1.15
20,RRIRCRPPRLPRPRPRPIHQPRP,-0.304
21,RRIRGRPPRLPRPRPRPHGSPRP,-0.0658
22,RRIRCRPPRLPRPRPRPGHGPRP,-0.0435
23,RRIRRRPPRLPRPRPRPALNPRP,0.248
24,RRIRSRPPRLPRPRPRPIQTPRP,-0.0822
25,RRIRERPPRLPRPRPRPYLEPRP,-0.271

row,Sequence,shrunken log2 fold change
1,RRIRARPPRLPRPRPRPTYTPRP,-0.0355
2,RRIRLRPPRLPRPRPRPTWIPRP,0.0209
3,RRIRDRPPRLPRPRPRPRRAPRP,0.691
4,RRIRDRPPRLPRPRPRPFHRPRP,-0.261
5,RRIRFRPPRLPRPRPRPRINPRP,-0.314
6,RRIRGRPPRLPRPRPRPIYMPRP,-0.191
7,RRIRWRPPRLPRPRPRPPWFPRP,0.218
8,RRIRHRPPRLPRPRPRPGRGPRP,0.529
9,RRIRPRPPRLPRPRPRPKFCPRP,0.189
10,RRIRCRPPRLPRPRPRPQCTPRP,-0.654
11,RRIRGRPPRLPRPRPRPQYNPRP,-0.0557
12,RRIRCRPPRLPRPRPRPIFIPRP,-0.339
13,RRIRYRPPRLPRPRPRPCMYPRP,-0.101
14,RRIRWRPPRLPRPRPRPGQSPRP,0.572
15,RRIRGRPPRLPRPRPRPLCQPRP,0.712
16,RRIRPRPPRLPRPRPRPTCMPRP,0.219
17,RRIRTRPPRLPRPRPRPGVFPRP,-0.0409
18,RRIRTRPPRLPRPRPRPYIHPRP,-0.779
19,RRIRRRPPRLPRPRPRPQWFPRP,-0.076
20,RRIRERPPRLPRPRPRPMWAPRP,-0.122
21,RRIRERPPRLPRPRPRPQINPRP,-0.586
22,RRIRFRPPRLPRPRPRPHLTPRP,-0.226
23,RRIRTRPPRLPRPRPRPYYWPRP,-0.0825
24,RRIRIRPPRLPRPRPRPLCPPRP,-0.502
25,RRIRCRPPRLPRPRPRPVNAPRP,-0.0831

# From the supplement of paper PMC9112550, “Optimization of the antimicrobial peptide Bac7 by deep mutational scanning” (BMC Biology, 2022)
